The series concerns the molecule itself. In words: crystal structure; sitting drop vapor diffusion at 20 °C, ALDH3A1 2 mg/ml, 18% PEG 3350 in 0.1 M potassium acetate pH 7.5; crystals soaked in mother liquor plus 10 mM octanal; 1.80 Å.

B1: aldehyde dehydrogenase family 3 member A1 (ALDH3A1) (enzyme, human)
chain: SKISEAVKRARAAFSSGRTRPLQFRIQQLEALQRLIQEQEQELVGALAADLHKNEWNAYYEEVVYVLEEIEYMIQKLPEWAADEPVEKTPQTQQDELYIHSEPLGVVLVIGTWNYPFNLTIQPMVGAIAAGNSVVLKPSELSENMASLLATIIPQYLDKDLYPVINGGVPETTELLKERFDHILYTGSTGVGKIIMTAAAKHLTPVTLELGGKSPCYVDKNCDLDVACRRIAWGKFMNSGQTCVAPDYILCDPSIQNQIVEKLKKSLKEFYGEDAKKSRDYGRIISARHFQRVMGLIEGQKVAYGGTGDAATRYIAPTILTDVDPQSPVMQEEIFGPVLPIVCVRSLEEAIQFINQREKPLALYMFSSNDKVIKKMIAETSSGGVAANDVIVHITLHSLPFGGVGNSGMGSYHGKKSFETFSHRRSCLVRPLMNDEGLKVRYPPSPAKMTQH
notes: human ALDH3A1, UniProt P30838; Subcloned between NdeI and SacI; The crystal was soaked with 10 mM octanal (a small molecule, not a partner); also called aldehyde dehydrogenase 3A1; Aldehyde dehydrogenase, dimeric NADP-preferring; source: E. coli BL21(DE3), purified (two ammonium sulfate precipitations, two chromatography steps)
Turning to B1, the binding result was “binds”.

The values above are taken from article PMC10039900, “Characterization of human oxidoreductases involved in aldehyde odorant metabolism” (Scientific Reports, 2023).
